In assay [1] the target is T1, human IL13 (human, UniProt P35225 35-146, biotinylated in the SPR assays (sites not given)). The assay is described as follows: cell-based or functional assay.
The target in assay [2] is T2, human IL4 (human, UniProt P05112 25-153, biotinylated in the SPR and competition assays (sites not given)).
T2 sequence: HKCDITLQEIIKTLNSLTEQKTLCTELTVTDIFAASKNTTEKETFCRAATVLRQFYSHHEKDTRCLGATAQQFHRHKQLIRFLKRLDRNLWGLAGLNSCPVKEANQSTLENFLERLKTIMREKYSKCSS
The assay is described as follows: cell-based or functional assay.

The target of assay [3] is T2, human IL4. The assay is described as follows: Affinity to IL4; method not re-described.
Assay [4] deals with T1, human IL13. As to the kind of experiment: Affinity to IL13; method not re-described.
Assay [5] has as its target T2, human IL4. As to the kind of experiment: IL4R binding inhibition; repeats Table 17. Here is the method:
AR protein inhibition of IL4 binding to IL4 RA was assessed using IL4 RA-Fc (R&D Systems), comprising the Gly24-His232 which represents the ECD (SEQ ID NO: 5) fused to a human IgGl-Fc and therefor a disulfide linked homodimer. The protein was conjugated to carboxylated Luminex microspheres according to the manufacturer's protocol. For neutralization experiments, 5000 IL4RA-Fc conjugated beads in 50 μl were added to each well of a 96-well filter plate (Millipore). Biotinylated human IL4 was mixed with an appropriate dilution of AR protein in Luminex Assay Buffer (PBS, 1% BSA, pH 7.4) to give a final concentration of 67 pM IL4. The plate was incubated for 1 hour at RT in the dark on a plate shaker, set to shake vigorously to avoid bead aggregation. The plate was washed twice with 150 μl of wash buffer (PBS, 0.1% BSA, pH 7.4, 0.05% Tween-20) using a vacuum manifold followed by the addition of 50 μl of Streptavidin PE at 25 μg/ml and incubated at RT for 20 minutes. The plates were washed again and 150 μl of sheath fluid was added and the plate was placed on the shaker for 5 minute. Plates were read using a Luminex® 100 system; data were plotted as a function of AR protein concentration. IC₅₀ values were determined by fitting the data to the equation for sigmoidal dose response using PRISM software (GraphPAD PRISM) (Table 6).

In assay [6] the target is T3, human IL13 R130Q (human, UniProt P35225 35-146, biotinylated (sites not given)).
T3 construct: Peprotech; also called IL13R13Q; R111Q
As to the kind of experiment: IL13Ra2 binding inhibition; repeats Table 17. Here is the method:
(§1) Binding protein inhibition of IL13 binding to Rα2 was assessed using IL13Rα2-Fc (R&D Systems) conjugated to carboxylated Luminex microspheres according to the manufacturer's protocol. For biotinylation of IL13, recombinant human IL13 R130Q (Peprotech) was biotinylated at a 4:1 ratio using EZ-Link NHS-LC-Biotin (Pierce, #21336) for 2 hours at RT. The protein was dialyzed in PBS overnight to remove excess biotinylation reagent. For neutralization experiments, 5000 IL13 Rα2-Fc conjugated beads in 50 μl were added to each well of a 96-well filter plate (Millipore). 50 μl of biotinylated human IL13 at 1 ng/ml (80 pM) was mixed with an appropriate dilution of binding protein in Luminex Assay Buffer (PBS, 1% BSA, pH 7.4). The plate was incubated for 1 hour at RT in the dark on a plate shaker, set to shake vigorously to avoid bead aggregation. The plate was washed 3 times with 150 μl of wash buffer (PBS, 1% BSA, pH 7.4, 0.05% Tween-20) using a vacuum manifold followed by the addition of 50 μl of Streptavidin PE at 25 μg/ml and incubated at RT for 20 minutes. The plates were washed again and 100 μl of sheath fluid was added and the plate was placed on the shaker for 1 minute. Plates were read using a Luminex® 100 system; data were plotted as a function of binding protein concentration. IC₅₀ values were determined by fitting the data to the equation for sigmoidal dose response using PRIZM software (GraphPAD PRIZM).

For assay [7], the target named is T2, human IL4. The assay is described as follows: IL4RA binding inhibition; assay not re-described (Luminex of Example 2).
Assay [8] concerns the target T3, human IL13 R130Q. As to the kind of experiment: IL13Ra2 binding inhibition; assay not re-described (Luminex of Example 2). Here is the method:
as §1

T3 sequence (P35225 35-146 limits assumed, stated change not applied): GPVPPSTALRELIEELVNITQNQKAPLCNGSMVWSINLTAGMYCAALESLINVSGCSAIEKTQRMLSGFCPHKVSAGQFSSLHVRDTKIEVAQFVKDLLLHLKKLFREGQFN
T1 sequence (P35225 other isoform, or with tags, fused parts or gaps limits assumed): as the sequence (P35225 35-146 limits assumed, stated change not applied) above, with Q110R counted along it

B1: C06_44C12_V2_C01_6G9_V1 (designed binder)
chain: DLGKKLLEAASAGQDDEVHILMANGADVNALDDSGYTPLHLAAEDGHLEIVEVLLKHGADVNAADRLGDTPLHLAAFVGHLEIVEVLLKAGADVNAVDLAGVTPLHVAAFYGHLEIVEVLLKAGADVNAQDKFGKTAFDISIDNGNEDLAEILQKLNGGGGSGGGGSGGGGSGGGGSDLDKKLLEAARAGQDDEVRILMANGADVNARDSYGSTPLHLAAREGHLEIVEVLLKYGADVNAADFIGDTPLHLAAYRGHLEIVEVLLKYGADVNASDITGETPLHLAAQIGHLEIVEVLLKHGADVNAQDKFGKTAFDISIDNGNEDLAEILQKLN
notes: bispecific IL4/IL13 ankyrin repeat protein with (GGGGS)4 linker; also called bispecific AR protein
Take B1: in the assay with human IL13 [1], the “A549/TARC IL13 IC50” value was found to be 0.063 nM. The “HEK Stat6 human IL13 IC50” value with human IL13 [1] is 0.014 nM. Besides, the “A549/TARC IL4 IC50” value with human IL4 [2] turned out to be 0.016 nM. Moreover, the “HEK stat6 hIL4 IC50” value in the assay with human IL4 [2] amounted to 0.0007 nM. Moreover, in the assay with human IL4 [2], the “Ramos Assay IC50” value amounted to 0.0058 nM. The Kd (in general, the concentration at which binding is half-saturated) with human IL4 [3] worked out at 0.0017 nM; with human IL13 [4] it was 0.0116 nM. The IC50 (usually the point on the concentration scale where inhibition reaches its midpoint) with human IL4 [5] amounted to 0.017 nM; with human IL13 R130Q [6] it was 0.028 nM; with human IL4 [7] it was 0.017 nM; with human IL13 R130Q [8] it was 0.028 nM.

B2: C01_6G9_V1_C06_53G6_V1 (designed binder)
chain: DLDKKLLEAARAGQDDEVRILMANGADVNARDSYGSTPLHLAAREGHLEIVEVLLKYGADVNAADFIGDTPLHLAAYRGHLEIVEVLLKYGADVNASDITGETPLHLAAQIGHLEIVEVLLKHGADVNAQDKFGKTAFDISIDNGNEDLAEILQKLNGGGGSGGGGSGGGGSGGGGSDLGKKLLEAARAGQDDEVRILMANGADVNATDDWGDTLLHLAATDGHLEIVEVLLKAGADVNANDAIGDTPLHLAALYGHLEIVEVLLKYGADVNATDLHGFTPLHLAAFWGHLEIVEVLLKHGADVNAQDKFGKTAFDISIDNGNEDLAEILQKLN
notes: bispecific IL13/IL4 ankyrin repeat protein with (GGGGS)4 linker; also called bispecific AR protein
Take B2: the “A549/TARC IL13 IC50” value in the assay with human IL13 [1] is 0.075 nM. Also, the “HEK Stat6 human IL13 IC50” value with human IL13 [1] turned out to be 0.015 nM. Also, the “A549/TARC IL4 IC50” value in the assay with human IL4 [2] worked out at 0.024 nM. For the same molecule, the “HEK stat6 hIL4 IC50” value in the assay with human IL4 [2] worked out at 0.0005 nM. For the same molecule, the “Ramos Assay IC50” value in the assay with human IL4 [2] stood at 0.0048 nM. For the same molecule, the results for the Kd in the assay with human IL4 [3] and with human IL13 [4] were 0.0031 nM and 0.0093 nM, respectively. In addition, the IC50 with human IL4 [5] worked out at 0.015 nM; in the assay with human IL13 R130Q [6] it was 0.099 nM; in the assay with human IL4 [7] it was 0.015 nM; in the assay with human IL13 R130Q [8] it was 0.099 nM.

B3: C01_6G9_V1_C06_44C12_V2 (designed binder)
chain: DLDKKLLEAARAGQDDEVRILMANGADVNARDSYGSTPLHLAAREGHLEIVEVLLKYGADVNAADFIGDTPLHLAAYRGHLEIVEVLLKYGADVNASDITGETPLHLAAQIGHLEIVEVLLKHGADVNAQDKFGKTAFDISIDNGNEDLAEILQKLNGGGGSGGGGSGGGGSGGGGSDLGKKLLEAASAGQDDEVHILMANGADVNALDDSGYTPLHLAAEDGHLEIVEVLLKHGADVNAADRLGDTPLHLAAFVGHLEIVEVLLKAGADVNAVDLAGVTPLHVAAFYGHLEIVEVLLKAGADVNAQDKFGKTAFDISIDNGNEDLAEILQKLN
notes: as for B2
B3: in the assay with human IL13 [1], the “A549/TARC IL13 IC50” value turned out to be 0.128 nM. Moreover, in the assay with human IL13 [1], the “HEK Stat6 human IL13 IC50” value amounted to 0.015 nM. Also, the “A549/TARC IL4 IC50” value in the assay with human IL4 [2] was found to be 0.055 nM. For the same molecule, in the assay with human IL4 [2], the “HEK stat6 hIL4 IC50” value turned out to be 0.0072 nM. The “Ramos Assay IC50” value with human IL4 [2] amounted to 0.0086 nM. The results for the Kd with human IL4 [3] and in the assay with human IL13 [4] were 0.002 nM and 0.0091 nM, respectively. Moreover, the IC50 with human IL4 [5] amounted to 0.025 nM; with human IL13 R130Q [6], 0.023 nM; with human IL4 [7], 0.025 nM; with human IL13 R130Q [8] it was 0.023 nM.

Values taken from patent US20120277143A1 (Janssen / Centocor, published 2012).
